According to patent US20050064433:

Tested on: T1, SbfI restriction endonuclease (R.SbfI) (Streptomyces species Bf-61)
T1 sequence: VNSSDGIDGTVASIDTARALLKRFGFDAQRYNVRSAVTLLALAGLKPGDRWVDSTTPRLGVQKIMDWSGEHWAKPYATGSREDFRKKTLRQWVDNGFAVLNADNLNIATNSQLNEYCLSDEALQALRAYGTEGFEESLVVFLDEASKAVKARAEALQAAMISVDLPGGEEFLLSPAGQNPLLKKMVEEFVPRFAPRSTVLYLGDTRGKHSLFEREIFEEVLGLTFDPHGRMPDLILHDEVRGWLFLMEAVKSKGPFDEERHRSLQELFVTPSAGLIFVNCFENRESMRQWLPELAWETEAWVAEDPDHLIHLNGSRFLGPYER
Assay: cleavage_in_vitro
Details: recombinant cell extract, serial dilutions 1x to 1/64; yield more than about 10^5 units per gram wet E. coli cells; recognition sequence not given

Substance: lambda DNA (printed as "I DNA") restriction substrate
- activity (U/g wet cells): 100000
